Results taken from the supplement of paper PMC12764529.
± gives the half width of the 95% confidence interval.

What was measured:
[1] = folding stability dG unfold from trypsin proteolysis; higher = more stable
In short: (§1)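 Unfolding free energy was derived, per protease or combined, against a sequence-predicted unfolded-state K50 and a shared folded-state K50, starting from K50 inferred by Bayesian fitting of sequencing counts. Digestion with trypsin and chymotrypsin was carried out on designed mini-proteins under 80 residues without cysteine in a PA-tagged cDNA display construct. Only designs with AlphaFold2 dimer inter-PAE above 15 were kept.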

[2] = folding stability dG unfold from chymotrypsin proteolysis; higher = more stable
In short: as §1

[3] = folding stability dG unfold (combined trypsin and chymotrypsin); higher = more stable
In short: as §1

Row | Sequence | folding stability dG unfold [1] [kJ/mol] | folding stability dG unfold [2] [kJ/mol] | folding stability dG unfold [3] [kJ/mol]
1 | SAMTEEEKKKKKEEEEKKKRELKIIVVAKTKDGKWKKIAEFTVKNKDMSIEELVKKLKDLGVEEVKIFPSAG [r14_318_TrROS_Hall] | 7.52 ± 0.343 | 12.9 ± 0.389 | 11.2 ± 1.09
2 | SAMTIEEAIEKGKIGAIVKVEVELPNGGKIEIEIFIESESLEEALEKIKAFFEALNLKVKIIEVKVFPVSAG [r14_854_TrMRF] | 14.2 ± 0.795 | 12 ± 0.418 | 12.9 ± 1.51
3 | SAMTITVPPDVSLEQIAKLLGYPNLKSFTKRKVTPNLTPATLTVPEDPNKVIKVLYRPADNYTEVIVLQSAG [r14_713_JUSTAS] | 4.29 ± 0.418 | 3.44 ± 1.26 | 3.85 ± 0.669
4 | SAMTPEEIKERLAAELPPSAEVMTTETFKEGDVEYVKITLRTPDSLSEATYNLETGEIERTPIGLDVPQSAG [r14_737_JUSTAS] | 1.77 ± 0.544 | 3.86 ± 0.544 | 3.31 ± 0.628
5 | SAMTTTETFEEGDYVYTVITTKIPSSLPPDSVVTIPVTTPLGAESEVVSEPGGTITVKVRLKKEDPELLSAG [r14_754_JUSTAS] | -6.57 ± 1.26 | 0.587 ± 0.368 | -0.736 ± 0.544
6 | SAMTVELTLPSEELVEKIKELLPSYVKIEKVEVDEETKTVTVTVSFDPNLSPEEQQAVVEKIKKLIEEKSAG [r14_306_JUSTAS] | 11.3 ± 0.837 | 14.9 ± 1.09 | 14.2 ± 1.17
7 | SAMVEVSTLPDGTTRVTITGKDPAAFEKELAELIEKIKKEGINATITKTREEPIPEEPELYRAELEIIVSAG [r14_119_JUSTAS] | 6.46 ± 0.259 | 6.18 ± 0.23 | 6.43 ± 1.05
8 | SAMVIIRVENKDGKTIEIAIPVRNEDGKLTKEELEELAKRLAEELAEELGLEDVKVEVEVRPLSEEELKSAG [r14_378_TrROS_Hall] | 6.86 ± 0.381 | 11.2 ± 0.339 | 9.83 ± 0.711
9 | SAMVITIHPDIPLEELAELLGFPEIEDATVEPLNEGIVPATFHIPEDPDKVILIDFNPEPDFALVLVLSSAG [r14_713_TrMRF] | 6.65 ± 0.28 | 9.43 ± 0.159 | 8.3 ± 0.711
10 | SAMVLVKIELYDPENEEPLATAEFVVPEEDLEAFVEEAKKIFGVAEDAFIKVEAAPLEPLTDESGEEVLSAG [r14_297_TrMRF] | 8.69 ± 0.502 | 7.474 ± 0.0586 | 8.12 ± 0.259
11 | SAMVRIERLPDGSLLVVVESEGKEEGLEFIERFIEEIKSLGIDAEIELLSIEEIPEDPKRYRATFLIKASAG [r14_119_TrMRF] | 20.2 ± 0.92 | 25.6 ± 1.13 | > 25.1
12 | SAMVSPEEAAKLIAEKIREEHPDPNIVVPVKVEYDPETNTTTITVTVKYPDDPSTETFTYTLAPDDVLKSAG [r14_849_JUSTAS] | 6.41 ± 0.184 | 9.15 ± 0.46 | 7.96 ± 0.343
13 | SAMVTARVSDSVLRAYRLPDGYVRLVVFDPKTGEPVVEFVVPEDLITDIVEVGDKAVIHVDVKEEDLKLSAG [r14_755_TrMRF] | 5.35 ± 0.18 | 8.28 ± 0.268 | 7.07 ± 0.322
14 | SAMVVSEELSPEGTRTTTTFNPATGTSTTTTTPIPEEPPLPPVSIPTSLSPEEREALREELEAAGVPVVLGS [r1_242_JUSTAS] | 5.09 ± 0.197 | 0.339 ± 0.389 | 2.73 ± 0.331
15 | SANEKVTVEVKIRFYFRFPKGQPFPFDITVPVTVEYDPNDPDKAKEEAKEKAIDEAIDEFRERFGYPLPSAG [r14_117_TrROS] | 7.31 ± 0.544 | 11.4 ± 0.544 | 9.91 ± 0.795
16 | SANMDMPPGFKPIARDDDITIWQNPNPVYIMIRGPDGKHKMLPFNPGDPEKIKDLIREFADDGITDIMISAG [r14_12_TrROS] | 5.98 ± 0.0669 | 2.75 ± 0.502 | 4.57 ± 0.628
17 | SANTRSIPFPGSADDIVDEIKNLIDANPDVKIRIQPMDGEEYEIDIEGIEKIKVERMPDGWYMITVELPSAG [r14_807_TrROS] | 1.18 ± 1.38 | 6.82 ± 0.544 | 4.85 ± 0.879
18 | SANVRRREIRIPAKDMPPNQIRDALRDLGFPPSKIENLDIERHKGNMITVKIYWTFENGQKQKIELHIPSAG [r14_30_TrROS] | -0.439 ± 1 | 5.42 ± 0.879 | 4.66 ± 0.795
19 | SANWHRFTIEAWVPVRDPNGKPIRPEQVEEQAERIANELWPRGFPIKDVTVEQHPDGWVRITATIEVPDSAG [r14_470_TrROS] | 10.4 ± 0.335 | 13.12 ± 0.092 | 12.3 ± 0.46
20 | SAPDKIEIPITFPNGYTFWIKIDPDRIRVTWMDNGLRREKEITPDGMIKLDFRMPNGRPIMSPTIPLEDSAG [r14_213_TrROS] | 4.12 ± 0.117 | 8.09 ± 0.502 | 6.45 ± 0.247
21 | SAPDVGPEERARRLIEEARAEVEAARAAGDPSVPRRVVFDELAVAHPEEAARILEEAARLGIPVEVRPPSAG [r14_908_JUSTAS] | 1.05 ± 0.46 | 4.1 ± 0.184 | 3.13 ± 0.347

Row | Sequence | folding stability dG unfold [1] [kJ/mol] | folding stability dG unfold [2] [kJ/mol] | folding stability dG unfold [3] [kJ/mol]
22 | SAPILPDAVVSEKPSVSQLPGNSTLVTTTYTYPGGPTITKTTTYTVDPSTGKWTTTSSTTLTPEAAAAASAG [r14_842_JUSTAS] | 1.58 ± 0.172 | 4.09 ± 0.314 | 3.16 ± 0.276
23 | SAPKIDSISIMWPGNHWYISIWYPDKNGEPMKEVMFPFESPEDLKDQIEELSPPGDVTVDIYPMPPDAFSAG [r14_964_TrROS] | 5.76 ± 0.197 | 6.43 ± 0.151 | 6.33 ± 0.41
24 | SAPKLEIEEVHVNPNDGMVMITFQIDNLPPGLKITIKPKNGKPRRWTGEPGKPIMFMIPPGVDDIEIEWSAG [r14_671_TrROS] | 6.86 ± 0.201 | 8.61 ± 0.46 | 8.12 ± 0.628
25 | SAPKNYRFKIYFPNGVEFTIPPGWDLEIEEFDPEDGVIRIKMTRYDKDDGKPVEKHDFPFPFRILEPDPSAG [r14_927_TrROS] | 7.23 ± 0.251 | 7.71 ± 0.962 | 7.9 ± 1.05
26 | SAPLDPDQAKEQAENIADYFQDEMQDQFGMDPSDIDVDVKVEQEPNGHYRITVEITMGNMPIEMEIYVPSAG [r14_226_TrROS] | 6.06 ± 0.46 | 8.77 ± 0.205 | 7.53 ± 0.502
27 | SAPLKIDLDIEPIPPGDKVRFNARITYPDGHPIRIPFEIYVPPDEIVIKFPIQDPKNGEPIAPLTFVIKSAG [r14_670_TrROS] | 6.39 ± 0.192 | 8.25 ± 0.837 | 6.97 ± 0.795
28 | SAPLTPEEAEEWAETLADELADKAGIPNVEIKVEPSPDGYWTAEIRFPNNGKKIRITWENGRPKITEIESAG [r14_925_TrROS] | 11.9 ± 0.837 | 11 ± 0.389 | 11.5 ± 0.669
29 | SAPPLPPETITLTLTIDGYEITVTLTRLPDGTVKLTVTVTLPDGTTVTITMYFDAKTNKWYITKIEITPPSA [r9_795_TrROS_Hall] | 16.9 ± 2.01 | 21.7 ± 0.502 | 22 ± 1.38
30 | SAPPPVQTLTLTVYDPETGRLVKIEVTRRPDGTLEVRVEVVDLETNEVTTETITLPGLTLDELLKLLEEASA [r9_618_TrROS_Hall] | 12.9 ± 0.669 | 16.8 ± 0.669 | 15.3 ± 0.669
31 | SAPPRTFIIPIERNPDGNVRLNIRMPGMEIEYEFPPGKDAEDALDKLSPHPGFNVELTEVDPNWIKITFSAG [r14_404_TrROS] | 5.44 ± 0.962 | 7.32 ± 1.46 | 5.36 ± 2.01
32 | SAPSPKTPETLVFLSEEESEVVEERLSPSGKPFLVKRKRRFLRYRYVDEDGNVTSVGEREEPVEEELVLSAG [r14_934_JUSTAS] | 4.12 ± 0.393 | 0.968 ± 0.544 | 2.81 ± 0.364
33 | SAPSPSVPLDPVTTETVLVKDPEKGEEITLEILTDANSDEVLVRITYPDGSEVVLRLKKEEVEKVIEALSAG [r14_240_JUSTAS] | 16.7 ± 1.55 | 12.9 ± 0.46 | 14.3 ± 0.502
34 | SAPVIEITEVTFNPDGSVEVTLVIPFPDDPEIPPEEIAKAIKEAFGFEEVTVEPIPETGAWRITLRAPGSAG [r14_228_TrMRF] | 14.2 ± 0.586 | 17.5 ± 0.372 | 17 ± 0.502
35 | SAPVVVVETIPDGGVLIVPAVFEPDKLLEYVEEIVNKIKPKGAEVEAKVIKVEPFEDFVVVTFEVKVKPSAG [r14_345_TrMRF] | 7.09 ± 0.502 | 7.1 ± 0.134 | 7.03 ± 0.669
36 | SARIRFPDGKPIDMEIVNIHRTPNGLTITIVLRHKDEYRVITFEIPPDGEIRIKSVERVPLPPGDPALVSAG [r14_13_TrROS] | 6.1 ± 0.247 | 14.1 ± 0.247 | 12.4 ± 0.502
37 | SASASQTTIEYTVPVPAGTSPDEPLTLTVTLPDKEIPIEVGTLENLPPDATVTITLDTTEPTFTVTLTPSAG [r14_554_JUSTAS] | 6.37 ± 0.213 | -1.89 ± 0.962 | 3.34 ± 0.402
38 | SASESAVVEEEYTIDVTTVTPPGTPTTEPVRLTITRLPPNTVEVTLTAPDGKTVETRVIPLSVSLEELLSAG [r14_559_JUSTAS] | 1.73 ± 0.586 | 0.56 ± 1.26 | 2.06 ± 0.669
39 | SASFRLEFPGVRIEVEVEEVEVFPRPDGRPYRLYRAKIRFLDVPEELQALDFPFSLDDEIEVLFLVSLDSAG [r14_942_TrMRF] | 16.1 ± 0.293 | 18.2 ± 0.502 | 17.5 ± 0.502
40 | SASKKPKLIIVDIVIKPEELKKMKPEELIEKILKELGIPKEKDVKIDLFLEPVELDGEEYYIIPALITNSAG [r14_334_TrMRF] | 4.66 ± 0.544 | 4.52 ± 0.586 | 5.18 ± 1.17
41 | SASLANGGLRVDVELEFDPETHEIRVKRLTLYRGDEPVATADATIAVPPAAPPPPPVVVLDPDVPFDNESAG [r14_571_TrMRF] | 2.87 ± 0.314 | 7.14 ± 0.351 | 5.36 ± 0.502
42 | SASLEEILASLGYSVSRSVLPNGTEVVTARHPDGTTVTVTVTPDGTTVTVTPPDGTVTTLSVEDVRRALSAG [r14_578_JUSTAS] | 12.4 ± 0.188 | 13.04 ± 0.0711 | 12.7 ± 0.209
